PMC10655190, “Targeted Mutation of a Non-catalytic Gating Residue Increases the Rate of Pseudomonas aeruginosaD-Arginine Dehydrogenase Catalytic Turnover” (Journal of Agricultural and Food Chemistry, 2023)

Legend:
purified protein [1] = substrate: CC(C)C[C@@H](N)C(=O)O; test: purified protein; settings: 1 mM PMS, 20 mM sodium pyrophosphate, pH 10.0, 25 °C
purified protein [2] = substrate: N=C(N)NCCC[C@@H](N)C(=O)O; test: purified protein; settings: 1 mM PMS, 20 mM sodium pyrophosphate, pH 10.0, 25 °C

B1: Pseudomonas aeruginosa D-arginine dehydrogenase (PaDADH) (Pseudomonas aeruginosa PAO1) (protein)
chain: MIEADYLVIGAGIAGASTGYWLSAHGRVVVLEREAQPGYHSTGRSAAHYTVAYGTPQVRALTAASRAFFDNPPAGFCEHPLLSPRPEMVVDFSDDPEELRRQYESGKALVPQMRLLDAEQACSIVPVLRRDKVFGATYDPTGADIDTDALHQGYLRGIRRNQGQVLCNHEALEIRRVDGAWEVRCDAGSYRAAVLVNAAGAWCDAIAGLAGVRPLGLQPKRRSAFIFAPPPGIDCHDWPMLVSLDESFYLKPDAGMLLGSPANADPVEAHDVQPEQLDIATGMYLIEEATTLTIRRPEHTWAGLRSFVADGDLVAGYAANAEGFFWVAAQGGYGIQTSAAMGEASAALIRHQPLPAHLREHGLDEAMLSPRRLSP
With B1 the Km (purified protein [1]) was 6.6 ± 0.5 mM, the kcat (purified protein [1]) was 73 ± 3 s⁻¹ and the kcat/Km (purified protein [1]) was 11000 ± 880 M⁻¹ s⁻¹. The Km (purified protein [2]) was 0.033 ± 0.002 mM.
